Experimental data: patent publication US11788108B2, “CMP-dependent sialidase activity” (Roche Diagnostics Operations, Inc., priority 2014, dated 2023)

Assays:
[1] = target: T1, α-2,6-sialyltransferase from rat liver (Rattus norvegicus, UniProt P13721); details: each inhibitor at 0.25 mM; cited from earlier work
T1 construct: host or cells: rat liver
T1 sequence (P13721 1-403): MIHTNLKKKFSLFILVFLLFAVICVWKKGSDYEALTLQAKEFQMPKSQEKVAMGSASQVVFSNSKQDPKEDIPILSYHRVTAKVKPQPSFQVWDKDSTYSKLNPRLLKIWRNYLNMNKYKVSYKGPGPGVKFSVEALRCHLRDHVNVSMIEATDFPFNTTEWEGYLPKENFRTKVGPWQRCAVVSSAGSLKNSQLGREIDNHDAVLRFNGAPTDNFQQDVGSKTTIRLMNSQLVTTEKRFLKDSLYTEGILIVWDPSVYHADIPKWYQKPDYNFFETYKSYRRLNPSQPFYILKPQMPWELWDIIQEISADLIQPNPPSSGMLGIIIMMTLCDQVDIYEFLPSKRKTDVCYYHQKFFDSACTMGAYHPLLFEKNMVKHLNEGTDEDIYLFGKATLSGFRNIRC

Δ89 hST6Gal-I = target: T2, Δ89 hST6Gal-I (Homo sapiens, UniProt P15907); assay: Inhibition of sialidase activity of Δ89 hST6Gal-I by CTP; type: biochemical
T2 construct: Erythropoietin signal peptide (Epo) (N, cleaved yes); AP spacer (N, cleaved yes); made in house; host or cells: HEK 293 cells (transient expression, secreted)
T2 sequence (P15907 90-406): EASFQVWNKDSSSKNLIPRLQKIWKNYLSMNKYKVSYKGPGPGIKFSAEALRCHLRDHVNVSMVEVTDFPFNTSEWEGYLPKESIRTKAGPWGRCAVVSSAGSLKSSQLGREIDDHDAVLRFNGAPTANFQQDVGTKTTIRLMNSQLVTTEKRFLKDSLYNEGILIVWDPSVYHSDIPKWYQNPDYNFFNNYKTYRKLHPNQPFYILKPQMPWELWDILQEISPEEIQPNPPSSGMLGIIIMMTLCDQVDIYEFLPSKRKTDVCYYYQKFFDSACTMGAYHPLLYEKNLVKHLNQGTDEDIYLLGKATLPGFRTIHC
Protocol: The compound cytidine-5′-triphosphate (CTP) is a known potent inhibitor of sialyltransferases (Scudder P R & Chantler E N BBA 660 (1981) 136-141). […] In the first phase of the experiment the sialylation of IgG4 MAB by Δ89 hST6Gal-I was performed to achieve a high content of G2+2SA (see Example 10). After 7 h of incubation the G2+2SA content was 94%. Subsequently, CTP was added to inhibit the sialidase activity of Δ89 hST6Gal-I (final concentration of CTP: 0.67 mM). At different times samples were taken and the content of G2+0SA, G2+1SA and G2+2SA was determined by mass spectrometry. […] After 72 h of incubation 73% of G2+2SA were still present.

[2] = target: T3, CMP-dependent sialidase activity of Δ89 hST6Gal-I (Homo sapiens, UniProt P15907); assay: Sialylation of IgG4 MAB using Δ89 hST6Gal-I in the presence of phosphatase enzymatic activity; type: biochemical; details: CMP degraded by dephosphorylating enzymes
T3 construct: Erythropoietin signal peptide (Epo) (N, cleaved yes); AP spacer (N, cleaved yes); made in house; host or cells: HEK 293 cells (transient expression, secreted)
T3 sequence (P15907 90-406): T2 sequence (P15907 90-406)
Text: Suppression of CMP-dependent sialidase activity of Δ89 hST6Gal-I was studied by continuous removal of CMP formed during the reaction.
In the experiments the enzymes (i) 5′-nucleotidase (EC 3.1.3.5) having a wide specificity for 5′-nucleotides, and (ii) alkaline phosphatase (EC 3.1.3.1) (both provided by commercial suppliers) were used. The particular 5′-nucleotidase used here is also known as ecto-5′-nucleotidase or CD73 (Cluster of Differentiation 73), in humans encoded by the NT5E gene. Both enzymes dephosphorylate CMP, i.e. catalyze hydrolysis of the phosphoester bond in CMP. In the experiments of this Example the enzymes were used to degrade CMP generated by the sialyltransferase reaction from the co-substrate CMP-NANA.
To 1,000 μg IgG4 MAB (182 μL) 500 μg CMP-NANA (3 mg/mL, 166.7 μL), 100 μg Δ89 hST6Gal-I (13.4 μL, 30 μg/300 μg IgG4 MAB) and different amounts of nucleotidase (Nu) and alkaline phosphatase (AP) were added. As Zn^2+ ions are essential for the activity of AP, these were added to a final concentration of 0.1 mM). The buffer used was 20 mM sodium acetate/Tris, pH 6.5. […]
After addition of the respective amounts of enzymes the samples were incubated at 37° C. […] Then the sample was analyzed by electrospray ionization mass spectrometry, and the content of G2+0SA, G2+1SA and G2+2SA N-glycans was determined. […]

IgG4 MAB = assay: Sialylation of humanized monoclonal antibody IgG4 MAB using Δ89 hST6Gal-I, mass spectrometry; type: biochemical
Protocol: A highly galactosylated humanized monoclonal antibody IgG4 MAB was used in sialylation experiments. The reaction mixture contained IgG4 MAB (300 μg in 55 μL 35 mM sodium actetate/Tris buffer pH 7.0), the donor substrate CMP-NANA (150 μg in 50 μL water) and sialyltransferase (30 μg Δ89 hST6Gal-I in 20 mM potassium phosphate, 0.1 M NaCl, pH 6.5). The samples were incubated at 37° C. for a defined time. To stop the reaction the samples were frozen at −20° C. For mass analysis 100 μL denaturing buffer (6 M guanidinium chloride) and 30 μL TCEP (=tris(2-carboxyethyl)phosphine; 0.1 mM, diluted in denaturing buffer) were added to the samples and the samples were incubated at 37° C. for 1 h. The samples were buffered in electrospray medium [20% ACN (=acetonitrile), 1% FA (=formamide)] using pre-equilibrated Illustra™ Nap5-Columns (GE-Healthcare). Samples were analyzed by electrospray ionization mass spectrometry and the content of G2+0SA, G2+1SA and G2+2SA N-glycans was determined. A Micromass Q-Tof Ultima and a Synapt G2 HDMS device (Waters UK) were used, the software used was MassLynx V 4.1. To determine the kinetics of the sialylation the reaction was incubated up to 72 h.

asialofetuin = assay: Test for sialyltransferase enzymatic activity (transfer of sialic acid from CMP-9-fluoro-NANA to asialofetuin); type: biochemical; details: recombinant enzyme purified from HEK cells
Protocol: Asialofetuin (desialylated fetuin, Roche Applied Science) was used as acceptor and CMP-9-fluoro-NANA (CMP-9-fluoresceinyl-NeuAc) was used as donor substrate (Brossmer, R. & Gross H. J. (1994) Meth. Enzymol. 247, 177-193). Enzymatic activity of a sialyltransferase was determined by measuring the transfer of sialic acid from the donor compound to asialofetuin. The reaction mix (35 mM MES, pH 6.0, 0.035% TRITON™ X-100 (C16H26O2), 0.07% BSA) contained 2.5 μg of enzyme sample, 5 μL asialofetuin (20 mg/mL) and 2 μL CMP-9-fluoro-NANA (1.0 mg/mL) in a total volume of 51 μL. The reaction mix was incubated at 37° C. for 30 min. The reaction was stopped by the addition of 10 μL of the inhibitor CTP (10 mM). The reaction mix was loaded onto a PD10 desalting column equilibrated with 0.1 M Tris/HCl, pH 8.5. Fetuin was eluted from the column using the equilibration buffer. The fractions size was 1 mL. The concentration of formed fetuin was determined using a fluorescence spectrophotometer. Excitation wave length was 490 nm, emission was measured at 520 nm. Enzymatic activity was expressed as RFU (relative fluorescence unit). 10,000 RFU/μg is equivalent to a specific activity of 0.0839 nmol/μg×min.

IgG1 MAB G2+2SA = assay: Sialidase activity on IgG1 MAB G2+2SA in the presence and absence of CMP; type: biochemical; details: for sialidase activity in the presence of CMP: CMP 10-fold molar excess, 37° C., pH 6.5, 125 μg enzyme/1,250 μg IgG1 MAB
Protocol: Cytidine monophosphate (5′-CMP, =CMP) is a product of the reaction catalyzed by sialyltransferase enzymes, generated in the course of the glycosyltransferase reaction from the co-substrate CMP-NANA. With incubation time of a sialylation reaction CMP accumulates in the reaction mixture.
To an amount of 1,250 μg (in 194 μL) highly sialylated IgG1 MAB according to Example 12 with an incubation period for sialylation of 8 h, 125 μg sialyltransferase variant (30 μg/300 μg IgG1 MAB) was added.
Different N-terminally truncated hST6Gal-I enzyme variants were tested for CMP-dependent sialidase activity: • Δ89 hST6Gal-I (Example 9) • Δ108 hST6Gal-I (Example 9) • Δ57 hST3Gal-I (obtained from R&D Systems)
Four different experiments were made using Δ89 hST6Gal-I (16.8 μL with 125 μg), Δ108 hST6Gal-I (17.3 μL with 125 μg), Δ57 hST3Gal-I (20.1 μL with 125 μg) and a negative control (no enzyme, 20.1 μL ultrapure water). The enzymes were tested for sialidase activity in the absence and presence of CMP (10-fold excess based on molarity). The concentrations were as shown as follows:
The samples were incubated at 37° C. in 20 mM sodium citrate, 35 mM Tris pH 6.5. Aliquots were taken as samples after different incubation times, and were analyzed.
To analyze the degree of sialylation of IgG1 MAB in the samples, 124 μL denaturing buffer (6 M Guanidinium chloride in water) and 30 μL TCEP (=tris(2-carboxyethyl)phosphine; 0.1 mM, diluted in denaturing buffer) were added to 76 μL (corresponding to 250 μg IgG1 MAB) and the sample was incubated at 37° C. for 1 h. After that the sample was buffered in electrospray medium (20% ACN (=acetonitrile), 1% FA (=formamide)) using pre-equilibrated ILLUSTRA™ NAP™5-Columns (GE-Healthcare). Subsequently the sample was analyzed by electrospray ionization mass spectrometry and the content of G2+0SA, G2+1SA and G2+2SA N-glycans was determined. A Synapt G2 HDMS device (Waters UK) was used, the software used was MassLynx V 4.1.

Question: With `Nc1ccn([C@@H]2O[C@H](CO)[C@@H](O)[C@H]2OP(=O)(O)O)c(=O)n1` [2′-CMP] as the molecule, how does the “inhibition of α-2,6-sialyltransferase” value [1] read?
Answer: 40%

Question: For `Nc1ccn([C@@H]2O[C@H](CO)[C@@H](OP(=O)(O)O)[C@H]2O)c(=O)n1` [3′-CMP], which “inhibition of α-2,6-sialyltransferase” value [1] is on record?
Answer: 39%

Question: Which “degradation of G2+2SA caused by the sialidase activity” value (Δ89 hST6Gal-I; CTP 0.67 mM, compared to inhibitor-free conditions) does the source give for `Nc1ccn([C@@H]2O[C@H](COP(=O)(O)OP(=O)(O)OP(=O)(O)O)[C@@H](O)[C@H]2O)c(=O)n1` [CTP, cytidine-5′-triphosphate] here?
Answer: significantly reduced

Question: What about the “G2+2SA still present” value (Δ89 hST6Gal-I; after 72 h of incubation, CTP final concentration 0.67 mM added after 7 h) of the same molecule?
Answer: 73%

B1: Δ89 hST6Gal-I: human β-galactoside-α-2,6-sialyltransferase I variant with truncation deletion of the first 89 N-terminal amino acids (protein)
chain: T2 sequence (P15907 90-406)
modifications: delta89 truncation variant of hST6Gal-I
notes: human β-galactoside-α-2,6-sialyltransferase I variant with truncation deletion of the first 89 N-terminal amino acids
Question: For B1, which “intrinsic sialidase activity in the absence of CMP” value [2] is on record?
Answer: no intrinsic sialidase activity

Question: And the “content of the bi-sialylated form G2+2SA” value (IgG4 MAB; after 2 h of incubation, 37° C., 30 μg enzyme/300 μg IgG4 MAB)?
Answer: 88%

Question: What about the “G2+2SA content” value (IgG4 MAB; after 7 h of incubation, before CTP addition) of the same molecule?
Answer: 94%

Question: And the “G2+1SA content” value (IgG4 MAB; after an incubation of 48 h, 37° C.)?
Answer: 71%

Question: What about the specific activity (asialofetuin) of the same molecule?
Answer: 3.75 nmol/pg/min

Question: And the “sialidase activity in the presence of CMP” value (IgG1 MAB G2+2SA)?
Answer: showed a CMP-dependent sialidase activity

Question: What about the “degradation of G2+2SA without CMP” value (IgG1 MAB G2+2SA; reaction mixture without CMP, incubation for 46 h) of the same molecule?
Answer: no degradation

B2: Δ108 hST6Gal-I: soluble human β-galactoside-α-2,6-sialyltransferase I variant lacking N-terminal amino acids from position 1 to 108 (protein)
chain: LQKIWKNYLSMNKYKVSYKGPGPGIKFSAEALRCHLRDHVNVSMVEVTDFPFNTSEWEGYLPKESIRTKAGPWGRCAVVSSAGSLKSSQLGREIDDHDAVLRFNGAPTANFQQDVGTKTTIRLMNSQLVTTEKRFLKDSLYNEGILIVWDPSVYHSDIPKWYQNPDYNFFNNYKTYRKLHPNQPFYILKPQMPWELWDILQEISPEEIQPNPPSSGMLGIIIMMTLCDQVDIYEFLPSKRKTDVCYYYQKFFDSACTMGAYHPLLYEKNLVKHLNQGTDEDIYLLGKATLPGFRTIHC
modifications: delta108 truncation variant of hST6Gal-I
Question: Which results are given for B2?
Answer: specific activity (asialofetuin): > 600 RFU/pg; sialidase activity in the presence of CMP (IgG1 MAB G2+2SA): did not show any sialidase activity
